The values that follow come from FireProtDB (doi:10.1006/jmbi.2001.4728).

The labels stand for the following.
B1: Cytochrome c-551, P00099 (parent)
chain: MKPYALLSLLATGTLLAQGAWAEDPEVLFKNKGCVACHAIDTKMVGPAYKDVAAKFAGQAGAEAELAQRIKNGSQGVWGPIPMPPNAVSDDEAQTLAKWVLSQK

Variants of B1 are the subject of this series. The note with it: Pseudomonas aeruginosa (strain ATCC 15692 / DSM 22644 / CIP 104116 / JCM 14847 / LMG 12228 / 1C / PRS 101 / PAO1); pH 7; 10 °C; Urea; Fluorescence; sodium phosphate 50 mM; reversible: yes; structure 451C; whole UniProt chain shown.

With MKPYALLSLLATGTLLAQGAWAEDPEVLFKNKGCVACHAIDTKMVGPAYKDVAAKFAGQAGAEAELAQRIKNGSQGVWGPIPMPPNAVSDDQAQTLAKWVLSQK [E92Q], the “ddG of mutation (higher = less stable)” value was 0.9 kcal/mol, the denaturant m value stood at 1.1 kcal/mol/M, the “denaturant midpoint (higher = more stable)” value (from here on “denaturant midpoint”) was determined as 5.7 M and the unfolding free energy stood at 6.2 kcal/mol.

For MKPYALLSLLATGTLLAQGAWAEDPEVLFKNKGCVACHAIDTKMVGPAYKDVAAKFAGQAGAEAELAQRIKNGSQGVWGPIPMPPNAVSDDVAQTLAKWVLSQK [E92V], the “ddG of mutation (higher = less stable)” value is 2 kcal/mol, the denaturant m value is 1.2 kcal/mol/M, the “denaturant midpoint” value turned out to be 4.3 M and the unfolding free energy amounted to 5.1 kcal/mol.

MKPYALLSLLATGTLLAQGAWAEDPEVLFKNKGCVACHAIDTKMVGPAYKDVAAKFAGQAGAEAELAQRIKNGSQGVWGPIPMPPNAVSDDEAQTLAKFVLSQK [W99F]: the “ddG of mutation (higher = less stable)” value was 1.2 kcal/mol, the denaturant m value stood at 1 kcal/mol/M, the “denaturant midpoint” value amounted to 5.6 M and the unfolding free energy came to 5.9 kcal/mol.

For MKPYALLSLLATGTLLAQGAWAEDPEVLFKNKGCVACHAIDTKMVGPAYKDVAAKFAGQAGAEAELAQRIKNGSQGVFGPIPMPPNAVSDDEAQTLAKWVLSQK [W78F], the “ddG of mutation (higher = less stable)” value worked out at 1.9 kcal/mol, the denaturant m value is 1.1 kcal/mol/M, the “denaturant midpoint” value came to 4.6 M and the unfolding free energy turned out to be 5.2 kcal/mol.
